{"source": "patent US8716556", "biological_target": "MYB96 (Arabidopsis thaliana) (UniProt Q24JK1)", "sequence (Q24JK1 whole entry)": "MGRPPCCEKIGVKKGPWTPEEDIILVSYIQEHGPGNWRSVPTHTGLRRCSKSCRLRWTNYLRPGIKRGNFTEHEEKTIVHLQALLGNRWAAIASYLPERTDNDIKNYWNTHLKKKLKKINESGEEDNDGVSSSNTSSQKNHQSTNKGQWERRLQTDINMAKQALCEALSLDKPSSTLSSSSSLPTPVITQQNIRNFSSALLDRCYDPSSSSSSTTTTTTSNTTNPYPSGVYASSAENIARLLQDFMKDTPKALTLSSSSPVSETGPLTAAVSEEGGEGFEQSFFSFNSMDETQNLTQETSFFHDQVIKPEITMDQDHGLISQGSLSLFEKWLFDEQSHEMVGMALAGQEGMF", "experiment": "cell_activity", "conditions": "GUS reporter activation in Arabidopsis protoplasts"}
{"substance": "KCS1-BS in pKCS-P reporter", "values": [{"measurement": "activity", "value": "> 6", "unit": "fold"}]}
